Target: α-synuclein (AS) expressed in non-mitotic SH-SY5Y cells, P37840
Assay: proximity ligation
Settings: remark: other sources report otherwise

B1: SERCA2 in SH-SY5Y cells, P16615 1-1042 (enzyme)
chain: MENAHTKTVEEVLGHFGVNESTGLSLEQVKKLKERWGSNELPAEEGKTLLELVIEQFEDLLVRILLLAACISFVLAWFEEGEETITAFVEPFVILLILVANAIVGVWQERNAENAIEALKEYEPEMGKVYRQDRKSVQRIKAKDIVPGDIVEIAVGDKVPADIRLTSIKSTTLRVDQSILTGESVSVIKHTDPVPDPRAVNQDKKNMLFSGTNIAAGKAMGVVVATGVNTEIGKIRDEMVATEQERTPLQQKLDEFGEQLSKVISLICIAVWIINIGHFNDPVHGGSWIRGAIYYFKIAVALAVAAIPEGLPAVITTCLALGTRRMAKKNAIVRSLPSVETLGCTSVICSDKTGTLTTNQMSVCRMFILDRVEGDTCSLNEFTITGSTYAPIGEVHKDDKPVNCHQYDGLVELATICALCNDSALDYNEAKGVYEKVGEATETALTCLVEKMNVFDTELKGLSKIERANACNSVIKQLMKKEFTLEFSRDRKSMSVYCTPNKPSRTSMSKMFVKGAPEGVIDRCTHIRVGSTKVPMTSGVKQKIMSVIREWGSGSDTLRCLALATHDNPLRREEMHLEDSANFIKYETNLTFVGCVGMLDPPRIEVASSVKLCRQAGIRVIMITGDNKGTAVAICRRIGIFGQDEDVTSKAFTGREFDELNPSAQRDACLNARCFARVEPSHKSKIVEFLQSFDEITAMTGDGVNDAPALKKAEIGIAMGSGTAVAKTASEMVLADDNFSTIVAAVEEGRAIYNNMKQFIRYLISSNVGEVVCIFLTAALGFPEALIPVQLLWVNLVTDGLPATALGFNPPDLDIMNKPPRNPKEPLISGWLFFRYLAIGCYVGAATVGAAAWWFIAADGGPRVSFYQLSHFLQCKEDNPDFEGVDCAIFESPYPMTMALSVLVTIEMCNALNSLSENQSLLRMPPWENIWLVGSICLSMSLHFLILYVEPLPLIFQITPLNVTQWLMVLKISLPVILMDETLKFVARNYLEPGKECVQPATKSCSFSACTDGISWPFVLLIMPLVIWVYSTDTNFSDMFWS
How did the reduction of the PLA signal by 0.5 μM CPA turn out when B1 was run?
The reduction of the PLA signal by 0.5 μM CPA was 50%.
